Assay results reported in US20250236667A1, “ANTIBODIES TO MUTANT CALRETICULIN AND USES THEREOF” (CENTRAL ADELAIDE LOCAL HEALTH NETWORK INC, priority 2021, published 2025).

Tests used:
[1] = tested on: healthy cord blood CD34+ cells; experiment: cells; assay type: cell-based, human
Experimental: Umbilical cord blood (UCB) was collected with written consent from full-term deliveries at the Women's Health Unit, Lyell McEwin Hospital (Adelaide, South Australia) or the Department of Obstetrics and Gynecology, Medical University of Graz (Austria) with institutional review board approval (IRB approval: 31-322 ex 18/19; HREC/20/WCHN/65). Samples were processed using a Ficoll-Paque (GE Healthcare) density gradient to isolate mononuclear cells (800×g, room temperature, 30 minutes, deceleration off), followed by red cell lysis (ammonium-chloride-potassium lysing buffer) to remove remaining red blood cells. CD34 enrichment was performed by magnetic cell separation using CD34 Microbead kit (Miltenyi Biotech). Alternatively, purified CD34+ cells from cord-blood were purchased from Lonza. CD34+ cells with a purity above 90% were either cryopreserved or directly cultured in serum-free stem cell retention media (StemSpan SFEMII, Stemcell Technologies, Vancouver, BC, Canada) supplemented with human recombinant SCF, TPO, FLT3, IL-6 (all 20 ng/mL), UM729 (1.75 uM) and StemReginin 1 (SR1, 300 nM). All cytokines and SRI were purchased from PeproTech (Rocky Hill, NJ, USA) whereas UM729 was purchased from Stemcell Technologies.
For megakaryocyte differentiation assays, CD34+ cells derived from cord blood or from patient peripheral blood mononuclear fractions were plated in Megacult (MegaCult™-C Collagen and Medium with Lipids) with added IL-3 and IL-6 (10 ng/ml) in the presence or absence of 50 ng/mL TPO. Cells were plated at an initial density of 1800 cells/well and cultured for 12 days at 37° C. and 5% CO2. […] Culture media was replenished every 3 days and cells were assessed for megakaryocyte differentiation on day 12 using anti-human CD41/61 PE-Cy7 (Clone A2A9/6) and CountBright beads (Thermo Fisher) to enumerate cell numbers. […] Cells were seeded at approximately 100 cells per well and were cultured in the presence of 20 μg/mL 4D7 or control IgG antibody and scored for colony and blast forming units at 12-14 days.

[2] = tested on: TpoR in TF-1 TpoR CALR^del61; experiment: TpoR tyrosine phosphorylation, immunoprecipitation and Western blot; assay type: cell-based, human; settings: 8 hours of 20 μg/mL
Experimental: A. Cell extracts blotted for phospho-STAT1, total STAT1, phospho-STAT3, total STAT3 and actin from TF-1 TpoR cells after incubation with 10 or 20 μg/mL 4D7 or IgG for 4 or 8 hours as indicated. B. Similar experiment using TPO-independent TF-1 TpoR CALR^del61 cells at 4 and 8 hours. C. Similar experiment shown using TPO-independent TF-1 TpoR CALR^del52 cells, 8 hours. D. Flow cytometry analysis for cell cycle distribution of TF-1 TpoR CALR^del61 cells exposed to 20 μg/mL IgG or 4D7 for 48 hours. Cells were harvested and fixed and stained with propidium iodide and their DNA contents were analysed. Results from one representative experiment shown. Percentages of cells in Sub Go, G1. S and G2/M cycle indicated. E. Western blot showing specific co-immunoprecipitation of mutant CALR^del61 cells with TpoR anti-FLAG antibody under reducing conditions detected by total and mutant specific CALR antibodies. Arrowheads represent detected CALR protein. F. Western blot showing decreased TpoR phosphorylation in a TpoR immunoprecipitated after 8 hours of 20 μg/mL 4D7 treatment compared to PBS or IgG control in TF-1 TpoR CALR^del61. […]

mutant CALR protein = target: T1, mutant CALR protein (Homo sapiens, UniProt P27797); experiment: Western blot detection of mutant CALR by hybridoma clones; assay type: binding
T1 construct: expressed in transfected cells; host or cells: TF-1 TpoR cells, pCX4-IRES eGFP vector
T1 sequence (P27797 with tags, fused parts or gaps limits assumed): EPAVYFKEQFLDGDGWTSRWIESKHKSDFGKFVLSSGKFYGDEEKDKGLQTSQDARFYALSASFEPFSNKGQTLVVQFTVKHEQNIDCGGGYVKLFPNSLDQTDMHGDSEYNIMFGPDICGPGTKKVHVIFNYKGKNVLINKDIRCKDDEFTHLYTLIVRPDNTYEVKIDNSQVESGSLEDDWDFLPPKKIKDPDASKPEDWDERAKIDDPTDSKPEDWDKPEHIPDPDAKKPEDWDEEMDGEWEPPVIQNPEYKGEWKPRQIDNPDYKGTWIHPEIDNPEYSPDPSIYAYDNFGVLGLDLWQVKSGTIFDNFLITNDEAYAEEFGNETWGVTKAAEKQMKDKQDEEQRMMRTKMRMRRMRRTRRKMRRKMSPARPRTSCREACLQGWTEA
Experimental: Rats were immunised with a CALR mutant peptide “MMRTKMRMRRMRRT RRKMRRKMSPARPRTS” coupled to KLH, this peptide sequence is unique to CALR mutant. Serum from the immunised rats was screened by enzyme linked immunoassay, to verify a strong titre to the peptide immunogen, prior to performing the hybridoma fusion. Immunised rat spleen cells were harvested and a spleen single cell suspension was combined with Sp2/O myeloma cell line. The cell mixture was treated with polyethylene glycol plus DMEM prior to been plated in 96 well flat bottom plates. The expanding hybridomas were screened initially by ELISA and the positive clones were further verified by western blot, for reactivity to the expressed CALR mutant protein before subcloning the hybridomas for antibody production.
For immunoblotting of total lysates, cells were lysed in NP40 buffer containing 150 mM NaCl, 50 mM Tris pH 7.6, 1% NP-40, supplemented with protease inhibitors (Complete, Roche) and phosphatase inhibitor cocktails, and boiled for 5 minutes after addition of sample buffer (60 mM Tris pH 6.8, 5% glycerol, 1% SDS, 2% β-mercaptoethanol, 0.02% bromophenol blue) before SDS gel electrophoresis followed by Western blotting (Tvorogov et al, 2010). Primary antibodies against pERK (#9101), pSTAT5 (#9359), ERK (#4695), Actin (#4970), Caspase 3 (#14220), wildtype CALR (#12238) were purchased from Cell Signalling. Primary antibodies against pSTATI (#612233), pSTAT3 (#612357), STATI (#610186), STAT3 (#610190), STAT5 (#610192) and Anti-phosphotyrosine 4G10 (#610012) were purchased from BD Biosciences. Mutant CALR monoclonal antibody CAL2 was purchased from Dianova (Hamburg, Germany). Immunopreciptation of TpoR was performed in standard NP40 lysis buffer with additional 50 mM iodoacetamide to avoid any de novo disulfide bond formation post lysis. To reduce IgG background during immunoprecipitation anti-FLAG conjugated to magnetic beads (Sigma, #M8823) were used. For this same reason, anti-FLAG-HRP conjugated antibodies (Sigma, #A8592) were used in western blotting.

B1: 4D7: rat monoclonal IgG2a antibody against the mutant CALR neoepitope; VH SEQ ID NO: 5, VL SEQ ID NO: 7 (antibody, listed as Rattus rattus, V domains shown)
VH: QVQLQQSGAELAKPGSSVKISCKASGYTFTNYDMSWIKQRPGQALEWIGAINPGNGVTDYNEKFRGKATLTVDKSSSTAFMQLSSLTPEDTAVYHCAREYRDNYGYFDYWGQGVMVTVSS
VL: DIVLTQTPVSLSVTLGDQASISCRSSQSLEYSDGYTYLDWFLQKPGQSPQLLIYEVSSRFSGVPDRFIGRGSGTDFTLKISRVEPEDLGVYYCFQATHDPFTFGSGTKLEIK
For B1, the “effect on normal hematopoiesis” value [1] was “no effect”, the TpoR tyrosine phosphorylation [2] was “inhibition” and the “reactivity to the peptide and CALR mutant protein among hybridoma clones” value (mutant CALR protein; 3 hybridoma screens, FIG. 6A) was “strongest reactivity”. For the same molecule, the “detection of mutant CALR protein by Western blot” value (mutant CALR protein; TF-1 TpoR CALR^del61 vs CALR wild type TF-1 cells) was “able to detect mutant CALR protein in CALR^del61 cells but not in CALR wild type TF-1 cells”.
